B1: N73D_F87Y (antibody, human IgG1, kappa, V domains shown)
VH: EVQLVESGGGLVQPGGSLRLSCAASGFTFTDYYMSWVRQAPGKGLEWLGFIRNKPNGYTTEYSASVKGRFTISRDDSQSSLYLQMNSLKTEDTAVYYCARYTGGGYFDYWGQGTLLTVSS
VL: DIQMTQSPSSLSASVGDRLTISCRASQDISNYLNWYQQKPGKTVKLLIYYTSRLHSGVPSRFSGSGSGTDYTLTISSLQPEDVATYYCQQGDTLPWTFGQGTKLEIKR
notes: label to be rechecked; also called 28G11_H2L3 with HC N73D and LC F87Y
B2: S76N_F87Y (antibody, human IgG1, kappa, V domains shown)
VH: EVQLVESGGGLVQPGGSLRLSCAASGFTFTDYYMSWVRQAPGKGLEWLGFIRNKPNGYTTEYSASVKGRFTISRDNSQNSLYLQMNSLKTEDTAVYYCARYTGGGYFDYWGQGTLLTVSS
VL: DIQMTQSPSSLSASVGDRLTISCRASQDISNYLNWYQQKPGKTVKLLIYYTSRLHSGVPSRFSGSGSGTDYTLTISSLQPEDVATYYCQQGDTLPWTFGQGTKLEIKR
notes: also called 28G11_H2L3 with HC S76N and LC F87Y
B3: N73D_Y71F (antibody, human IgG1, kappa, V domains shown)
VH: EVQLVESGGGLVQPGGSLRLSCAASGFTFTDYYMSWVRQAPGKGLEWLGFIRNKPNGYTTEYSASVKGRFTISRDDSQSSLYLQMNSLKTEDTAVYYCARYTGGGYFDYWGQGTLLTVSS
VL: DIQMTQSPSSLSASVGDRLTISCRASQDISNYLNWYQQKPGKTVKLLIYYTSRLHSGVPSRFSGSGSGTDFTLTISSLQPEDVATYFCQQGDTLPWTFGQGTKLEIKR
notes: also called 28G11_H2L3 with HC N73D and LC Y71F
B4: T30S_T43V (antibody, human IgG1, kappa, V domains shown)
VH: EVQLVESGGGLVQPGGSLRLSCAASGFTFSDYYMSWVRQAPGKGLEWLGFIRNKPNGYTTEYSASVKGRFTISRDNSQSSLYLQMNSLKTEDTAVYYCARYTGGGYFDYWGQGTLLTVSS
VL: DIQMTQSPSSLSASVGDRLTISCRASQDISNYLNWYQQKPGKVVKLLIYYTSRLHSGVPSRFSGSGSGTDYTLTISSLQPEDVATYFCQQGDTLPWTFGQGTKLEIKR
notes: also called 28G11_H2L3 with HC T30S and LC T43V
B5: Q75K_WT (antibody, human IgG1, kappa)
heavy: not shown
light: DIQMTQSPSSLSASVGDRLTISCRASQDISNYLNWYQQKPGKTVKLLIYYTSRLHSGVPSRFSGSGSGTDYTLTISSLQPEDVATYFCQQGDTLPWTFGQGTKLEIKRTVAAPSVFIFPPSDEQLKSGTASVVCLLNNFYPREAKVQWKVDNALQSGNSQESVTEQDSKDSTYSLSSTLTLSKADYEKHKVYACEVTHQGLSSPVTKSFNRGEC
notes: also called 28G11_H2L3 with HC Q75K
B6: Q75K_V44P (antibody, human IgG1, kappa, V domains shown)
VH: EVQLVESGGGLVQPGGSLRLSCAASGFTFTDYYMSWVRQAPGKGLEWLGFIRNKPNGYTTEYSASVKGRFTISRDNSKSSLYLQMNSLKTEDTAVYYCARYTGGGYFDYWGQGTLLTVSS
VL: DIQMTQSPSSLSASVGDRLTISCRASQDISNYLNWYQQKPGKTPKLLIYYTSRLHSGVPSRFSGSGSGTDYTLTISSLQPEDVATYFCQQGDTLPWTFGQGTKLEIKR
notes: also called 28G11_H2L3 with HC Q75K and LC V44P
B7: S76N_V44P (antibody, human IgG1, kappa, V domains shown)
VH: EVQLVESGGGLVQPGGSLRLSCAASGFTFTDYYMSWVRQAPGKGLEWLGFIRNKPNGYTTEYSASVKGRFTISRDNSQNSLYLQMNSLKTEDTAVYYCARYTGGGYFDYWGQGTLLTVSS
VL: DIQMTQSPSSLSASVGDRLTISCRASQDISNYLNWYQQKPGKTPKLLIYYTSRLHSGVPSRFSGSGSGTDYTLTISSLQPEDVATYFCQQGDTLPWTFGQGTKLEIKR
notes: also called 28G11_H2L3 with HC S76N and LC V44P
B8: S76N_WT (antibody, human IgG1, kappa, V domains shown)
VH: EVQLVESGGGLVQPGGSLRLSCAASGFTFTDYYMSWVRQAPGKGLEWLGFIRNKPNGYTTEYSASVKGRFTISRDNSQNSLYLQMNSLKTEDTAVYYCARYTGGGYFDYWGQGTLLTVSS
VL: DIQMTQSPSSLSASVGDRLTISCRASQDISNYLNWYQQKPGKTVKLLIYYTSRLHSGVPSRFSGSGSGTDYTLTISSLQPEDVATYFCQQGDTLPWTFGQGTKLEIKR
notes: also called 28G11_H2L3 with HC S76N
B9: T30S_Y71F (antibody, human IgG1, kappa, V domains shown)
VH: EVQLVESGGGLVQPGGSLRLSCAASGFTFSDYYMSWVRQAPGKGLEWLGFIRNKPNGYTTEYSASVKGRFTISRDNSQSSLYLQMNSLKTEDTAVYYCARYTGGGYFDYWGQGTLLTVSS
VL: DIQMTQSPSSLSASVGDRLTISCRASQDISNYLNWYQQKPGKTVKLLIYYTSRLHSGVPSRFSGSGSGTDFTLTISSLQPEDVATYFCQQGDTLPWTFGQGTKLEIKR
notes: also called 28G11_H2L3 with HC T30S and LC Y71F
B10: Q75K_L19V (antibody, human IgG1, kappa)
heavy: not shown
light: DIQMTQSPSSLSASVGDRVTISCRASQDISNYLNWYQQKPGKTVKLLIYYTSRLHSGVPSRFSGSGSGTDYTLTISSLQPEDVATYFCQQGDTLPWTFGQGTKLEIKRTVAAPSVFIFPPSDEQLKSGTASVVCLLNNFYPREAKVQWKVDNALQSGNSQESVTEQDSKDSTYSLSSTLTLSKADYEKHKVYACEVTHQGLSSPVTKSFNRGEC
notes: also called 28G11_H2L3 with HC Q75K and LC L19V
B11: Q75K_T43V (antibody, human IgG1, kappa, V domains shown)
VH: EVQLVESGGGLVQPGGSLRLSCAASGFTFTDYYMSWVRQAPGKGLEWLGFIRNKPNGYTTEYSASVKGRFTISRDNSKSSLYLQMNSLKTEDTAVYYCARYTGGGYFDYWGQGTLLTVSS
VL: DIQMTQSPSSLSASVGDRLTISCRASQDISNYLNWYQQKPGKVVKLLIYYTSRLHSGVPSRFSGSGSGTDYTLTISSLQPEDVATYFCQQGDTLPWTFGQGTKLEIKR
notes: also called 28G11_H2L3 with HC Q75K and LC T43V
B12: T30S_V44P (antibody, human IgG1, kappa, V domains shown)
VH: EVQLVESGGGLVQPGGSLRLSCAASGFTFSDYYMSWVRQAPGKGLEWLGFIRNKPNGYTTEYSASVKGRFTISRDNSQSSLYLQMNSLKTEDTAVYYCARYTGGGYFDYWGQGTLLTVSS
VL: DIQMTQSPSSLSASVGDRLTISCRASQDISNYLNWYQQKPGKTPKLLIYYTSRLHSGVPSRFSGSGSGTDYTLTISSLQPEDVATYFCQQGDTLPWTFGQGTKLEIKR
notes: also called 28G11_H2L3 with HC T30S and LC V44P
B13: S76N_T43V (antibody, human IgG1, kappa, V domains shown)
VH: EVQLVESGGGLVQPGGSLRLSCAASGFTFTDYYMSWVRQAPGKGLEWLGFIRNKPNGYTTEYSASVKGRFTISRDNSQNSLYLQMNSLKTEDTAVYYCARYTGGGYFDYWGQGTLLTVSS
VL: DIQMTQSPSSLSASVGDRLTISCRASQDISNYLNWYQQKPGKVVKLLIYYTSRLHSGVPSRFSGSGSGTDYTLTISSLQPEDVATYFCQQGDTLPWTFGQGTKLEIKR
notes: also called 28G11_H2L3 with HC S76N and LC T43V
B14: T30S_F87Y (antibody, human IgG1, kappa, V domains shown)
VH: EVQLVESGGGLVQPGGSLRLSCAASGFTFSDYYMSWVRQAPGKGLEWLGFIRNKPNGYTTEYSASVKGRFTISRDNSQSSLYLQMNSLKTEDTAVYYCARYTGGGYFDYWGQGTLLTVSS
VL: DIQMTQSPSSLSASVGDRLTISCRASQDISNYLNWYQQKPGKTVKLLIYYTSRLHSGVPSRFSGSGSGTDYTLTISSLQPEDVATYYCQQGDTLPWTFGQGTKLEIKR
notes: also called 28G11_H2L3 with HC T30S and LC F87Y
B15: N73D_V44P (antibody, human IgG1, kappa, V domains shown)
VH: EVQLVESGGGLVQPGGSLRLSCAASGFTFTDYYMSWVRQAPGKGLEWLGFIRNKPNGYTTEYSASVKGRFTISRDDSQSSLYLQMNSLKTEDTAVYYCARYTGGGYFDYWGQGTLLTVSS
VL: DIQMTQSPSSLSASVGDRLTISCRASQDISNYLNWYQQKPGKTPKLLIYYTSRLHSGVPSRFSGSGSGTDYTLTISSLQPEDVATYFCQQGDTLPWTFGQGTKLEIKR
notes: also called 28G11_H2L3 with HC N73D and LC V44P
B16: 20E6_H2L1 (antibody, human IgG1, kappa, V domains shown)
VH: QVQLVQSGAEVKKPGASVKVSCKASGYTFTSYWMHWVRQAPGQGLEWIGRIDPNSGGIKYNEKFKSRVTLTVDKSSSTAYMELSRLRSDDTAVYYCARWDYGGYFDVWGQGTLVTVSS
VL: DIQMTQSPSSLSASVGDRVTITCRASQDITNYLNWYQQKPGKAVKLLIYYTSRLHSGVPSRFSGSGSGTDYTLTISSLQPEDFATYFCQQGDTLPWTFGQGTKLEIKR
B17: 20E6_H4L1 (antibody, human IgG1, kappa)
heavy: not shown
light: DIQMTQSPSSLSASVGDRVTITCRASQDITNYLNWYQQKPGKAVKLLIYYTSRLHSGVPSRFSGSGSGTDYTLTISSLQPEDFATYFCQQGDTLPWTFGQGTKLEIKRTVAAPSVFIFPPSDEQLKSGTASVVCLLNNFYPREAKVQWKVDNALQSGNSQESVTEQDSKDSTYSLSSTLTLSKADYEKHKVYACEVTHQGLSSPVTKSFNRGEC
B18: 20E6_H3L1 (antibody, human IgG1, kappa)
heavy: not shown
light: DIQMTQSPSSLSASVGDRVTITCRASQDITNYLNWYQQKPGKAVKLLIYYTSRLHSGVPSRFSGSGSGTDYTLTISSLQPEDFATYFCQQGDTLPWTFGQGTKLEIKRTVAAPSVFIFPPSDEQLKSGTASVVCLLNNFYPREAKVQWKVDNALQSGNSQESVTEQDSKDSTYSLSSTLTLSKADYEKHKVYACEVTHQGLSSPVTKSFNRGEC
B19: 20E6_H0L1 (antibody, human IgG1, kappa, V domains shown)
VH: QVQLVQSGAEVKKPGASVKVSCKASGYTFTSYWMHWVRQAPGQGLEWMGRIDPNSGGIKYNEKFKSRVTMTRDTSISTAYMELSRLRSDDTAVYYCARWDYGGYFDVWGQGTLVTVSS
VL: DIQMTQSPSSLSASVGDRVTITCRASQDITNYLNWYQQKPGKAVKLLIYYTSRLHSGVPSRFSGSGSGTDYTLTISSLQPEDFATYFCQQGDTLPWTFGQGTKLEIKR
B20: 20E6_H1L1 (antibody, human IgG1, kappa, V domains shown)
VH: QVQLVQSGAEVKKPGASVKVSCKASGYTFTSYWMHWVRQAPGQGLEWIGRIDPNSGGIKYNEKFKSRVTLTVDTSISTAYMELSRLRSDDTAVYYCARWDYGGYFDVWGQGTLVTVSS
VL: DIQMTQSPSSLSASVGDRVTITCRASQDITNYLNWYQQKPGKAVKLLIYYTSRLHSGVPSRFSGSGSGTDYTLTISSLQPEDFATYFCQQGDTLPWTFGQGTKLEIKR

T2 sequence (P01137 30-390 limits assumed): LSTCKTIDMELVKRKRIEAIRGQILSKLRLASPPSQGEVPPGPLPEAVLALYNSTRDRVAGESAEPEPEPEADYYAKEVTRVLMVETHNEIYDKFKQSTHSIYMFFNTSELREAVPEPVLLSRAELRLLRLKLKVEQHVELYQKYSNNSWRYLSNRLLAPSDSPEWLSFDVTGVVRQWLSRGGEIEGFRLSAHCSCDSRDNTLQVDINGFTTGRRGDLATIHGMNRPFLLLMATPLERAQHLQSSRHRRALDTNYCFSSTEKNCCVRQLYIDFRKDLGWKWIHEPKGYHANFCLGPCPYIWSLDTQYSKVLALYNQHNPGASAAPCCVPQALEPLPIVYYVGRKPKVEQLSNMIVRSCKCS

In the first assay the target is T1, human LAP-TGFβ1 overexpressed on cells (human, UniProt P01137 30-390).
T1 construct: HT1080 or P3U1 cells overexpressing wild-type human LAP-TGFβ1; also called HT1080-huB1; HT1080-hβ1
T1 sequence (P01137 30-390): as the sequence (P01137 30-390 limits assumed) above
Nature of the assay: flow cytometry; black bar HT1080-huB1, grey bar HT1080.
Consider B1, for which the binding result is reported as “no binding”.
Same read-out and setting: with B2 the entry was “binds”; with B3, “no binding”.
Same read-out and setting: the result for B4 reads “binds”; that for B5, “binds”.
Still for that read-out and setting: the result for B6 reads “binds”; that for B7, “binds”.
For B8, the binding result is listed as “binds”.
With B9, the binding result is reported as “no binding”.
Same read-out and setting: the result for B10 reads “binds”; that for B11, “binds”.
The same measure, in the same setting: with B12 the entry was “binds”.
Still for that read-out and setting: with B13 the entry was “binds”; with B14, “binds”.
Regarding B15, the binding result is given as “no binding”.

A further assay has as its target T2, fusion protein of a human IgG1 Fc domain and human LAP-TGFβ1 (human, UniProt P01137 30-390).
T2 construct: printed both as Fc-huB1 and LAP-TGFβ-Fc; also called Fc-huB1; Fc-human LAP
Description: BLI (Octet). (In general: Biolayer interferometry detects binding as a change in optical thickness at a sensor tip.)
One may read the Kd as the free concentration of one partner at which half of the binding sites on the other are occupied at equilibrium, for simple one-to-one binding. Lower therefore signals a tighter complex. The koff is the rate constant with which the complex falls apart. A high value points to fast dissociation. In general, kon refers to the rate constant with which the complex forms. Lower therefore signals slower complex formation. In turn, B16 returned a dissociation constant Kd of 0.48 nM, a koff of 0.000747 s⁻¹ and a kon of 1.57e+06 M⁻¹ s⁻¹.
The corresponding values for B17 are 0.47 nM, 0.000729 s⁻¹ and 1.56e+06 M⁻¹ s⁻¹.
B18 displayed a Kd of 0.47 nM, a koff of 0.000702 s⁻¹ and a kon of 1.48e+06 M⁻¹ s⁻¹.
For B19 the same measures were 0.51 nM, 0.000814 s⁻¹ and 1.59e+06 M⁻¹ s⁻¹.
The corresponding values for B20 are 0.48 nM, 0.000677 s⁻¹ and 1.41e+06 M⁻¹ s⁻¹.
